# Data: IntAct's records for PubMed 35512704
# B1: Mothers against decapentaplegic homolog 4 (Homo sapiens), Q13485 (parent)
# chain: MDNMSITNTPTSNDACLSIVHSLMCHRQGGESETFAKRAIESLVKKLKEKKDELDSLITAITTNGAHPSKCVTIQRTLDGRLQVAGRKGFPHVIYARLWRWPDLHKNELKHVKYCQYAFDLKCDSVCVNPYHYERVVSPGIDLSGLTLQSNAPSSMMVKDEYVHDFEGQPSLSTEGHSIQTIQHPPSNRASTETYSTPALLAPSESNATSTANFPNIPVASTSQPASILGGSHSEGLLQIASGPQPGQQQNGFTGQPATYHHNSTTTWTGSRTAPYTPNLPHHQNGHLQHHPPMPPHPGHYWPVHNELAFQPPISNHPAPEYWCSIAYFEMDVQVGETFKVPSSCPIVTVDGYVDPSGGDRFCLGQLSNVHRTEAIERARLHIGKGVQLECKGEGDVWVRCLSDHAVFVQSYYLDREAGRAPGDAVHKIYPSAYIKVFDLRQCHRQMQQQAATAQAAAAAQAAAVAGNIPGPGSVGGIAPAISLSAAAGIGVDDLRRLCILRMSFVKGWGPDYPRQSIKETPCWIEIHLHRALQLLDEVLHTMPIADPQPLD
# partner: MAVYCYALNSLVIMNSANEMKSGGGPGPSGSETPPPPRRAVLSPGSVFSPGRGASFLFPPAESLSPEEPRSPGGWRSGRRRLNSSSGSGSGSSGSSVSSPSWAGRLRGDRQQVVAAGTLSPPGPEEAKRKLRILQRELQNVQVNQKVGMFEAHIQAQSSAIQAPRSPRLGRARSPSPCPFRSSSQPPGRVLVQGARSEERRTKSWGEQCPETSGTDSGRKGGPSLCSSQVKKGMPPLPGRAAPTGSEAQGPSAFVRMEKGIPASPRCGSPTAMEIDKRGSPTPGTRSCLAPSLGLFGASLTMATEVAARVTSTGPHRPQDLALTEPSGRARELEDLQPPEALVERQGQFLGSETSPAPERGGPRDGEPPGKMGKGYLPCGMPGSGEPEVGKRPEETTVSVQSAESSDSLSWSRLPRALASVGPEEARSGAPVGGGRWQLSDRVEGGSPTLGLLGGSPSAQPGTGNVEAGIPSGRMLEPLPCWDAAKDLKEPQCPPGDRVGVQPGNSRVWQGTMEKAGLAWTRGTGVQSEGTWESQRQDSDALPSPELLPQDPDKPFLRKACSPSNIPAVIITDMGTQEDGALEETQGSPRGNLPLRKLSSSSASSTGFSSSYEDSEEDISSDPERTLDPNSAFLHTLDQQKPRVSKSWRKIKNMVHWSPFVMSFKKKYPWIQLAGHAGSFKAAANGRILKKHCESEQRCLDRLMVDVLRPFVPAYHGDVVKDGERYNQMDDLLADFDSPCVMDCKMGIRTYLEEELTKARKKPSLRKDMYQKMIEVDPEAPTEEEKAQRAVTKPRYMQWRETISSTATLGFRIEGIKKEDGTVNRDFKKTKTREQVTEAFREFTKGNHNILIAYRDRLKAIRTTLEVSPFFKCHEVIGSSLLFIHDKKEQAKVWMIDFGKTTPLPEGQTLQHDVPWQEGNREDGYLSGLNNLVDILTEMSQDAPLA
# B2: Mothers against decapentaplegic homolog 4 (Homo sapiens), Q13485 (parent)
# chain: B1 chain
# partner: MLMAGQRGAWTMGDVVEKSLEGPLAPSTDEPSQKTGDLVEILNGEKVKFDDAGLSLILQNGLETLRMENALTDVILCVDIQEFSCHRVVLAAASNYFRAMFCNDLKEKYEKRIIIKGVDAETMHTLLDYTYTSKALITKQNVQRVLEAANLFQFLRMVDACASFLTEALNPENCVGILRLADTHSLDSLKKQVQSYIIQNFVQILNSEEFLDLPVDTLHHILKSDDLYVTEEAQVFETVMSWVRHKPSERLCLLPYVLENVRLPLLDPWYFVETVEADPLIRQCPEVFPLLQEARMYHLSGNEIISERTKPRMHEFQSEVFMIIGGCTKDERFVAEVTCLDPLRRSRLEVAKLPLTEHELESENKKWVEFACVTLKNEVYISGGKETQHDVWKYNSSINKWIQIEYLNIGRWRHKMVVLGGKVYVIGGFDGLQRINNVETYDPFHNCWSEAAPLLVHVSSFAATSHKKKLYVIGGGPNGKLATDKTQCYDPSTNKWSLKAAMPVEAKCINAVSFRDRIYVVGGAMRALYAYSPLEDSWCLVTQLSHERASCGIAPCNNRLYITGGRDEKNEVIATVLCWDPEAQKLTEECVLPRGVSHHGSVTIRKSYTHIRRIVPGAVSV
# B3: Mothers against decapentaplegic homolog 4 (Homo sapiens), Q13485 (parent)
# chain: B1 chain
# partner: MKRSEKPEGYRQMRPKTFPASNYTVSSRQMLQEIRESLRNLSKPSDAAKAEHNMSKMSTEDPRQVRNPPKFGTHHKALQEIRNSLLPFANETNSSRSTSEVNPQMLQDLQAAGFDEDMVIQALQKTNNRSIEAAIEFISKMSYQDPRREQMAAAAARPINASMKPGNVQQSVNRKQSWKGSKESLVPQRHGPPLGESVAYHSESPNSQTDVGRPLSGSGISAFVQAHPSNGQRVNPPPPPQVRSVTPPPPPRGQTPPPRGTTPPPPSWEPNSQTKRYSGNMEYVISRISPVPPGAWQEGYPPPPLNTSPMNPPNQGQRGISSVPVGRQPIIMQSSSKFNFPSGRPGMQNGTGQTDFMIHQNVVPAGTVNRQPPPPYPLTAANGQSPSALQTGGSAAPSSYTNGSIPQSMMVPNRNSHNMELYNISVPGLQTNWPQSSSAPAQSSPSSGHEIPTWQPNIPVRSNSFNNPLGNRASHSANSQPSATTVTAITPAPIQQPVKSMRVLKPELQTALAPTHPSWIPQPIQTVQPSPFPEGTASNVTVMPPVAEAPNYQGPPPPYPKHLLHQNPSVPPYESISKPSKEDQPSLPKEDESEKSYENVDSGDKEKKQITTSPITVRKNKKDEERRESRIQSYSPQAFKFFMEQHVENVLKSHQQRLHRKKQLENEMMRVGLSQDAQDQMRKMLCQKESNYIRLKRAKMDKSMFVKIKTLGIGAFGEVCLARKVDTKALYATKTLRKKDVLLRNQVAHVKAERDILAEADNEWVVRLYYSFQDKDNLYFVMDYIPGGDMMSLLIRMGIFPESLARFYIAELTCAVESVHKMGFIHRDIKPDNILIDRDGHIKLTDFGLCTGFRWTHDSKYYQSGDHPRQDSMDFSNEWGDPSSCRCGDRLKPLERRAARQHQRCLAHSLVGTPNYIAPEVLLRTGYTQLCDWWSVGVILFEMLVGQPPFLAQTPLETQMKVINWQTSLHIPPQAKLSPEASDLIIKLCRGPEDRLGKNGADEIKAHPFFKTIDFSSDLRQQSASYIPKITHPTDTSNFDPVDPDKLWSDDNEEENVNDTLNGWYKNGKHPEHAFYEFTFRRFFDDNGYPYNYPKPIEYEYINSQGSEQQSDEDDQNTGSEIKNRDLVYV
# Variants of: B1
# Settings: with ip3kb_human ITPKB
row,Variant,effect of a mutation on the interaction
1,R361C,with no effect

# Variants of: B1
# Settings: with ip3kb_human ITPKB
# Remark: another data set of the same source
row,Variant,effect of a mutation on the interaction
1,R361H,with no effect

# Variants of: B2
# Settings: with klhl6_human KLHL6, Q8WZ60
row,Variant,effect of a mutation on the interaction
1,D351H,with no effect

# Variants of: B2
# Settings: with klhl6_human KLHL6, Q8WZ60
# Remark: another data set of the same source
row,Variant,effect of a mutation on the interaction
1,G386D,with no effect

# Variants of: B2
# Settings: with klhl6_human KLHL6, Q8WZ60
# Remark: another data set of the same source
row,Variant,effect of a mutation on the interaction
1,G386D,causing an interaction

# Variants of: B2
# Settings: with klhl6_human KLHL6, Q8WZ60
# Remark: another data set of the same source
row,Variant,effect of a mutation on the interaction
1,R361C,with no effect

# Variants of: B2
# Settings: with klhl6_human KLHL6, Q8WZ60
# Remark: another data set of the same source
row,Variant,effect of a mutation on the interaction
1,R361H,with no effect

# Variants of: B3
# Settings: with lats1_human LATS1, O95835
row,Variant,effect of a mutation on the interaction
1,D351H,with no effect

# Variants of: B3
# Settings: with lats1_human LATS1, O95835
# Remark: another data set of the same source
row,Variant,effect of a mutation on the interaction
1,G386D,with no effect

# Variants of: B3
# Settings: with lats1_human LATS1, O95835
# Remark: another data set of the same source
row,Variant,effect of a mutation on the interaction
1,G386D,increasing interaction strength

# Variants of: B3
# Settings: with lats1_human LATS1, O95835
# Remark: another data set of the same source
row,Variant,effect of a mutation on the interaction
1,R361C,with no effect
